Experimental findings from patent US20240075114A1 are described below.

The test concerns the target PF-4 in cynomolgus monkey plasma (cynomolgus monkey). As to the kind of experiment: aligned sandwich ELISA, cyno plasma.

“monoclonal anti-HPF4 antibody (Abcam cat. no.: ab49735)”: the AUC Ratio vs anti-HPF4 was determined as 1 and the anti-HPF4 AUC mean turned out to be 2.9.
